From patent US20120107320A1 (UNIVERSITY COURT OF THE UNIVERSITY OF ABERDEEN, published 2012)

Molecular target: T1, human soluble CTLA-4 (sCTLA-4), natural soluble form (human, UniProt P16410-5 36-174, limits assumed)
T1 construct: also called natural soluble CTLA-4; soluble form of cytotoxic T-lymphocyte antigen 4
T1 sequence (looked up): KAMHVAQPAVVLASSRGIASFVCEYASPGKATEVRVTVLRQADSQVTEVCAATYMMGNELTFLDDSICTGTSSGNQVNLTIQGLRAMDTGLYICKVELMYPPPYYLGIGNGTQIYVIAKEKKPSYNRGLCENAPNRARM
Assay: sandwich ELISA, capture with pan-specific mAb BNI3, detection with biotinylated JMW-3B3
Excerpt: FIG. 7. Anti-sCTLA-4 JMW-3B3 distinguishes, in sera and culture supernatant, true natural soluble CTLA-4 from extracellular membrane-bound CTLA-4 (mCTLA-4). The extracellular portion of mCTLA-4 is encoded by exon 2 and is identical in sCTLA-4, mCTLA-4 and the recombinant soluble form of CTLA-4, CTLA4-Ig. […] Pan-specific anti-CTLA-4 mAb (clone BNI3) was used as the capture antibody.

B1: monoclonal anti-sCTLA-4 antibody JMW-3B3 (antibody, mouse IgG1, V domains shown)
VH: EVKLVNSGGGLVQPGNSLRLSCATSGFTFTDFYMSWVRQPPGKALEWLGFVRNRANGYTTEYSVSVKGRFIISRDNFQSTLFLQMNTLRAEDSGTYYCVRGPGDTADYTMDYWGQGTSVTVSS
VL: QAVVTQESAFTTSPGGTVILTCRSSTGAVTTNNYANWVQEKPDHLFTGLIGGTSNRAPGVPVRFSGSLIGDKAALTITGAQTEDDGMYFCALWYTTHFVFGGGTKVT
notes: It was biotinylated for detection in the sandwich ELISAs; also called mAb JMW-3B3; anti-sCTLA-4 mAb
B1: binds.
